Measured values: publication doi:10.1101/2021.10.07.463531

Target: HA-Bicc1 with mutation D or with deletion of the KH tandem repeat
Test: co-IP

B1: GFP-Bicc1 (natural protein)
chain: MASQSEPGYLAAAQSDPGSNSERSTDSPVAGSEDDLVAAAPLLHSPEWSEERFRVDRKKLEAMLQAAAEGKGRSGEDFFQKIMEETNTQIAWPSKLKIGAKSKKDPHIKVSGKKEDVKEAKEMIMSVLDTKSNRVTLKMDVSHTEHSHVIGKGGNNIKKVMEDTGCHIHFPDSNRNNQAEKSNQVSIAGQPAGVESARARIRELLPLVLMFELPIAGILQPVPDPNTPSIQHISQTYSVSVSFKQRSRMYGATVTVRGSQNNTNAVKEGTAMLLEHLAGSLASAIPVSTQLDIAAQHHLFMMGRNGSNVKHIMQRTGAQIHFPDPSNPQKKSTVYLQGTIESVCLARQYLMGCLPLVLMFDMKEDIEVDPQVIAQLMEQLDVFISIKPKPKQPSKSVIVKSVERNALNMYEARKCLLGLESSGVSIATSLSPASCPAGLACPSLDILASAGLGLTGLGLLGPTTLSLNTSATPNSLLNALNTSVSPLQSSSSGTPSPTLWAPPIANTASATGFSTIPHLMLPSTAQATLTNILLSGVPTYGHTAPSPPPGLTPVDVHINSMQTEGKNISASINGHVQPANMKYGPLSTSSLGEKVLSSNHGDPSMQTAGPEQASPKSNSVEGCNDAFVEVGMPRSPSHSGNAGDLKQMLGASKVSCAKRQTVELLQGTKNSHLHGTDRLLSDPELSATESPLADKKAPGSERAAERAAAAQQKSERARLASQPTYVHMQAFDYEQKKLLATKAMLKKPVVTEVRTPTNTWSGLGFSKSMPAETIKELRRANHVSYKPTMTTAYEGSSLSLSRSSSREHLASGSESDNWRDRNGIGPMGHSEFSAPIGSPKRKQNKSREHYLSSSNYMDCISSLTGSNGCNLNSCFKGSDLPELFSKLGLGKYTDVFQQQEIDLQTFLTLTDQDLKELGITTFGARRKMLLAISELSKNRRKLFEPPNASCTSFLEGGASGRLPRQYHSDIASVSGRW
percent reduction of co-immunoprecipitated GFP-Bicc1 relative to WT HA-Bicc1: 60 to 75%
